Drawing on patent publication US20180002740, this text covers activity for one sequence.

The test system of the series is VanR (phosphorylated) (Streptomyces coelicolor M600). The series can be described thus: cell_activity. Particulars: indirect: growth arrest about 18 h with 20 ug/ml vancomycin; 64 pM little effect.

With “ATATCTATATGAAGCGACGTGGTCGATGAGCCGCAGCGTTTTCGCTGCGGCTCATCGACCACGTCGCTTCATATAGATATAGTTTTCT [vanH5 dumbbell decoy]”, the activity is 256 pM.
